Patent publication US20250195629A1, “SITE-SPECIFIC BRAIN THERAPEUTICS” (William Marsh Rice University, priority 2023, published 2025)

Tested on: wild-type C57BL/6J mice
Experiment: Locomotor behavior test (open field) before and after L-DOPA
Type: in vivo, mouse
Text: RAID neuromodulation provides an approach for precise modulation of brain activity through regionally activated interstitial drug delivery. It should be noted, site-specific, noninvasive methods hold promise for controlled behavioral modulation. As such, to evaluate long-term efficacy of RAID neuromodulation, RAID's ability to sustain behavioral control over time is described herein. In some embodiments, to measure effects of RAID neuromodulation on behavior, targeting dorsal striatum with two FUS sites are be analyzed. In some instances, effects of RAID neuromodulation by targeting dorsal striatum with two FUS sites can be used to increase an amount of on-target delivery of AADC in the CPu region that contains dopamine-responsive cells. […] With this in mind, in certain embodiments, a pair of AADC-IKVAV (SEQ ID NO: 23) and L-DOPA may be used to evaluate whether RAID can induce similar behavioral changes after the prodrug administration. In some embodiments, AADC-IKVAV (SEQ ID NO: 23) is delivered via FUS-BBBO to two sites in the left striatum region of wild type mice. FIG. 11a illustrates embodiments of RAID control of behavior through targeted neuromodulation including an experimental scheme for RAID-induced control of motor behavior by targeted activation of dopamine neurons, in accordance with embodiments described herein. As illustrated, FUS in two sites of the left striatum are used to deliver AADC-IKVAV (SEQ ID NO: 23) (250 mg/kg, i.v. injection) or PBS buffer control. After 2 days, open field test (OFT) was performed twice before and after a single injection of the prodrug L-DOPA (2 mg/kg, i.p.), allowing 200 minutes between each test. The locomotor activity was recorded for 15 min after a habituation period of 5 min in each test. After the testing, mice were perfused 2 h after L-DOPA administration for histologic examination of AADC-IKVAV (SEQ ID NO: 23) retention and neuron activation (c-Fos+) to confirm localize neuromodulation. As schematically depicted in FIG. 11a, the AADC protein fused with a short peptide IKVAV (SEQ ID NO: 23) (e.g., AADC-IKVAV (SEQ ID NO: 23)) to two sites in the left striatum of wild-type mice using FUS-BBBO. After 46 hours, the mice underwent an open field (OF) test to assess baseline locomotor activity over a 20-minute period. The mice were then returned to their home cages and, 100 minutes later, received an intraperitoneal injection of L-DOPA (2 mg/kg) before undergoing another OF test.
Locomotor behavior test—Two groups of mice underwent FUS-BBBO targeting two sites at left striatum immediately after intravenous injection of recombinant protein AADC-IKVAV (SEQ ID NO: 23) (n=14 mice for FUS+AADC-IKVAV group, 20 mg/mL, 250 mg/kg) or equivalent volume of PBS buffer (n=11 mice for FUS alone group). Another group without FUS-BBBO procedure served as wild type control (n=12 mice for WT group). After 46 h, the first session of behavioral test was performed in a custom-made non-transparent open field box (30.5 cm×30.5 cm) as a baseline. Each mouse was individually placed into the apparatus center with a light intensity and background noise at ˜320 lux and 46 dB (400 Hz peak), respectively. After a habituation period of 5 min, the locomotor activity of a freely-moving mouse was recorded for 15 min by a video tracking system (Stoelting Co.) consisting of an overhead camera connected to a computer with Any-Maze software. Behavioral measures include total distance traveled, average and maximum speed, freezing time and episodes, mobile/immobile time and episodes, clockwise and counterclockwise rotations and head turn angles. The mouse was returned to the home cage immediately after testing. After 90 min, the mice were intraperitoneally injected with carbidopa (25 mg/kg) and 10 min later L-DOPA (2 mg/kg) as described above. A second session of open field test 100 min after L-DOPA injection.

[1] = FUS+AADC-IKVAV alone, 46 h, vs WT and FUS alone

Molecule: N[C@@H](Cc1ccc(O)c(O)c1)C(=O)O [L-DOPA, reference compound]
- decrease of clockwise (contralateral) rotation after L-DOPA (FUS alone group, L-DOPA 2 mg/kg i.p.): 44±13%
- change in episodes of mobility after L-DOPA (control groups, FUS alone or wild type, L-DOPA 2 mg/kg i.p.): no significant change
- reduction of counter-clockwise (ipsilateral) rotations after L-DOPA (control mice with FUS alone or no treatment, L-DOPA 2 mg/kg i.p.): not in the control mice
- decrease of clockwise (contralateral) rotation after L-DOPA (untreated wild-type group, L-DOPA 2 mg/kg i.p.): 52±8%

B1: AADC-IKVAV: aromatic-L-amino-acid decarboxylase (AADC) protein fused with short peptide IKVAV (SEQ ID NO: 23); CDS SEQ ID NO: 21 (protein)
chain: MRGSHHHHHHGMASMTGGQQMGRDLYDDDDKDPMNASEFRRRGKEMVDYMANYMEGIEGRQVYPDVEPGYLRPLIPAAAPQEPDTFEDIINDVEKIIMPGVTHWHSPYFFAYFPTASSYPAMLADMLCGAIGCIGFSWAASPACTELETVMMDWLGKMLELPKAFLNEKAGEGGGVIQGSASEATLVALLAARTKVIHRLQAASPELTQAAIMEKLVAYSSDQAHSSVERAGLIGGVKLKAIPSDGNFAMRASALQEALERDKAAGLIPFFMVATLGTTTCCSFDNLLEVGPICNKEDIWLHVDAAYAGSAFICPEFRHLLNGVEFADSFNFNPHKWLLVNFDCSAMWVKKRTDLTGAFRLDPTYLKHSHQDSGLITDYRHWQIPLGRRFRSLKMWFVFRMYGVKGLQAYIRKHVQLSHEFESLVRQDPRFEICVEVILGLVCFRLKGSNKVNEALLQRINSAKKIHLVPCHLRDKFVLRFAICSRTVESAHVQRAWEHIKELAADVLRAEREGGSGSSGGSGGSGGSGIKVAV
modifications: misc_feature 1..1602 Synthetic: AADC-IKVAV
- counter-clockwise rotations before L-DOPA administration [1]: no effect
- number of mobile episodes before L-DOPA administration [1]: no effect
- clockwise (contralateral) rotation after L-DOPA (RAID treatment: FUS + AADC-IKVAV, L-DOPA 2 mg/kg i.p.): prevented that decrease
- decrease in mobile episodes after L-DOPA (RAID: FUS two sites left striatum + AADC-IKVAV 250 mg/kg i.v., 2 days, L-DOPA 2 mg/kg i.p.): 38±8%
- reduction of counter-clockwise (ipsilateral) rotations after L-DOPA (full RAID treatment: FUS + AADC-IKVAV 250 mg/kg i.v., L-DOPA 2 mg/kg i.p.): 63±10%
